The chains are these.
B1: wt ALKBH3: wild-type human Fe(II)/2OG-dependent dioxygenase ALKBH3 with N-terminal His-tag, expressed in E. coli (protein, UniProt Q96Q83 1-286, looked up)
Alpha-ketoglutarate-dependent …: MEEKRRRARVQGAWAAPVKSQAIAQPATTAKSHLHQKPGQTWKNKEHHLSDREFVFKEPQQVVRRAPEPRVIDREGVYEISLSPTGVSRVCLYPGFVDVKEADWILEQLCQDVPWKQRTGIREDITYQQPRLTAWYGELPYTYSRITMEPNPHWHPVLRTLKNRIEENTGHTFNSLLCNLYRNEKDSVDWHSDDEPSLGRCPIIASLSFGATRTFEMRKKPPPEENGDYTYVERVKIPLDHGTLLIMEGATQADWQHRVPKEYHSREPRVNLTFRTVYPDPRGAPW
modifications: N-terminal His-tag
notes: wild-type human Fe(II)/2OG-dependent dioxygenase ALKBH3 with N-terminal His-tag, expressed in E. coli
B2: L177A ALKBH3: ALKBH3 mutant, Leu177 replaced with Ala (protein, UniProt Q96Q83 1-286, looked up, variant L177A)
Alpha-ketoglutarate-dependent …: B1 Alpha-ketoglutarate-dependent … with L177A
B3: Y143A ALKBH3: ALKBH3 mutant, Tyr143 replaced with Ala (protein, UniProt Q96Q83 1-286, looked up, variant Y143A)
Alpha-ketoglutarate-dependent …: B1 Alpha-ketoglutarate-dependent … with Y143A
B4: Y143F ALKBH3: ALKBH3 mutant, Tyr143 replaced with Phe (protein, UniProt Q96Q83 1-286, looked up, variant Y143F)
Alpha-ketoglutarate-dependent …: B1 Alpha-ketoglutarate-dependent … with Y143F
B5: H191A ALKBH3: ALKBH3 mutant, His191 replaced with Ala (protein, UniProt Q96Q83 1-286, looked up, variant H191A)
Alpha-ketoglutarate-dependent …: B1 Alpha-ketoglutarate-dependent … with H191A

Here are results for 5 molecules from article PMC10816986, “The Role of Key Amino Acids of the Human Fe(II)/2OG-Dependent Dioxygenase ALKBH3 in Structural Dynamics and Repair Activity toward Methylated DNA” (International Journal of Molecular Sciences, 2024).

Where a chain is given by its changes, count along the chain named. Names and notes keep the numbering of the source.

By Kd is commonly meant the concentration at which binding is half-saturated.

A short description of one data set: Equilibrium fluorescence titration with Co(II). In kind it is binding. The conditions noted are these: 1 µM apoprotein, 25 °C; read-out: Dissociation constant Kd, Co(II). An excerpt: To investigate the impact of selected mutations on ALKBH3’s ability to bind its cofactor, co-substrate, and methylated DNA, the fluorescent titration method was employed. It is well-established that enzyme–ligand binding typically leads to a protein conformational change, which in turn can alter the fluorescence intensity of tryptophan and tyrosine residues within the protein sequence. […] In this study, transitional metals (Fe(II), Ni(II), and Co(II)), 2OG, and the m3C substrate served as titrants. Protein fluorescence quenching was measured after the addition of an excess of the ligand to 1 µM of enzyme (Supplementary Figure S2). To determine the equilibrium dissociation constant’s Kd values, the resulting titration curves were analyzed using a non-linear regression algorithm (see Section 4.3 of “Materials and Methods” for details). […] As indicated by the data presented in Table 2, the stability of the wt ALKBH3 apoenzyme’s affinity to various ligands and damaged DNA generally corresponds to the stability of such complexes for AlkB and ALKBH2 enzymes. […] The binding of Ni(II) and Co(II) ions of similar radii was weakened by approximately two-fold. […] This behavior is more characteristic of the bacterial homolog AlkB rather than human ALKBH2 [7].
The intrinsic tryptophan fluorescence quenching was monitored at the maximum of emission (345 nm, in most cases) using an excitation wavelength of 280 nm, and 5 nm slits. An amount of 2 mM of (NH4)2Fe(SO4)2·6H2O, 2 mM of NiSO4×7H2O, 2 mM of CoSO4·7H2O, 2 mM of 2OG, or 100 µM of m3C substrate was titrated into 1 µM of apoprotein (a free enzyme with no metal or 2OG added) in the presence of 50 mM of HEPES-KOH (pH 7.8), 50 mM of KCl, and 10 mM of MgCl2. When titrating with DNA, the buffer was supplemented with 2 mM of EDTA. The dissociation constant Kd for a model of one-step binding (E + L ↔ EL) was determined using Equations (2)–(5) and a non-linear regression algorithm in the OriginPro 8.1 software (OriginLab Corp., Northampton, MA, USA):(2) Kd=E[L]/[EL] (3) F=f0+f1E+f2[EL] (4) e0=E+[EL] (5) l0=L+[EL] where F is the observed fluorescence intensity at any given ligand (L) concentration; f0 is the background fluorescence; f1 and f2 are partial fluorescence intensities of the free enzyme (E) and enzyme–ligand complex (EL), respectively; e0 and l0 are total concentrations of the enzyme and ligand.
Figure S2. Equilibrium binding of the wild-type and mutant ALKBH3 proteins to transition metals, 2OG, or m3C-containing DNA. The quenching of the enzyme ﬂuorescence is shown as a function of Fe(II) (A), Ni(II) (B), Co(II) (C), 2OG ( D), and single-stranded m3C substrate (E). The protein concentration was 1 µM. In the course of titration by Fe(II), a sodium ascorbate (1mM) was added to keep the metal in a reduced state. Experimental data points were ﬁtted to a single-site binding mode l (see “Materials and Methods”). Each trace represents the average of three technical […]
(1 picture or pasted object on this page, not shown here)
In the case of B1, the Kd was determined as 52 ± 4 µM.

Turning to B2, the Kd was 98 ± 9 µM.

B3: the Kd is 44 ± 4 µM.

B4: the Kd came out at 40 ± 3 µM.

In the case of B5, the Kd stood at 59 ± 6 µM.

The next data set can be described thus: Far-UV CD spectroscopy, secondary structure content (BeStSel).
Conditions: not given
In kind it is physicochemical. As for the experimental part: To assess the effect of key amino acid substitution on the ALKBH3’s secondary structure content circular CD spectra of each protein variant in the apo state were recorded in accordance with experimental conditions optimized in our previous study.
The secondary structure content was determined by processing experimental spectra using the […] (BeStSel, Budapest, Hungary) and CDSSTR (DichroWeb, London, UK) algorithms. […] A detailed description of the parameter optimization process for each algorithm is provided in our recent work. The BeStSel package was selected for further analysis as it provides more information regarding the structural organization of the protein. As follows from data summarized in Table 3, antiparallel β-strands predominate in the structure of the wild-type ALKBH3 (37.6%), with a considerable portion existing in right-twisted and relaxed conformations. The protein sequence also contains a significant number of loop motifs (12.6%) and poorly ordered structures (~44.7%), which may constitute the N-terminal domain. Only 5.2% of the amino acid sequence is composed of α-helices. Utilizing the protein architecture and topology prediction feature available in BeStSel, it was established that the obtained CD spectrum belongs (with a probability of 96%) to the class of β-proteins with a sandwich or β-barrel architecture. Such a distribution corresponds to the structure of ALKBH3 determined by X-ray crystallography for a truncated form of the enzyme lacking 69 amino acids from the N-terminus (PDB 2IUW). Specifically, the β7-β14 strands form two antiparallel sheets of a central “jellyroll” fold, which constitutes the catalytically active DSBH domain (Figure 1). Thus, the CD method we selected enabled us to determine the composition of the secondary structure of ALKBH3 with a high degree of precision.
Far-UV CD spectra from 185 to 280 nm were recorded using a J600 spectrometer (Jasco, Tokyo, Japan) in a 0.1 cm path lengths quartz cuvette (Starna Cells, CA, USA). In all cases, the protein sample (~50 nmol) was dialyzed two times against the CD buffer containing 10 mM of Potassium Phosphate (pH 7.8) and 50 mM of (NH4)2SO4. […] Data were corrected for a baseline by subtraction of the buffer spectrum and expressed as mean residue ellipticity [θ] […] To estimate the secondary structures, each spectrum between […] and 250 nm was analyzed by both the DichroWeb and BeStSel online programs using the CDSSTR method.
Figure 5 Far-UV CD spectra of wt (blue), Y143F (yellow), Y143A (green), L177A (red), and H191A (purple) ALKBH3 collected from 0.2 mg/mL protein at 11 °C in the absence of ligands. Each spectrum was measured three times, corrected for background, averaged, and expressed as mean residue ellipticity θ (deg·cm^2·dmol^−1).
B2: the “increase in α-helical content over wt ALKBH3” value (shortened to “increase in α-helical content”) amounted to 2.7 fold.

As for B3, the “increase in α-helical content” value worked out at 3 fold.

Turning to B5, the “increase in α-helical content” value is listed as “up to 3.1 fold”.

The data set is the same for the next values; noted with them: sum of Table 3 components.
Consider B1, for which the “α-helices, total” value was 5.2%.
